# Patent publication US20160303258A1
# Where no end group is shown, it is not given here. The star is where a group is joined. DOTA = O=C(O)CN1CCN(CC(=O)O)CCN(CC(=O)*)CCN(CC(=O)O)CC1; Ahx = NCCCCCC(=O)O
# B1: [68Ga]MLN6907 DP (drug product), Formula (VIa) (peptide)
# peptide: {DOTA-Ahx}-CCELCCNPACAGCY
# modifications: ends and bridges not checked; also: 68Ga complexed by DOTA, cyclised (places not given here)
# Tests used:
# [1] = molecular target: guanylyl cyclase C (GCC) (human), P25092; assay: in vitro competitive binding assay with HEK-293 GCC clone 2 cells (Indium-111 used as surrogate label; FIG. 13)
# [2] = molecular target: guanylyl cyclase C (GCC) (human), P25092; assay: competitive binding against [111In]MLN6907 on HEK-293 GCC Clone 2 cells; DSP treated with chelation reaction conditions (acetone:HCl, about 100 C, 10 min)
# [3] = molecular target: guanylyl cyclase C (GCC) (human), P25092; assay: in vivo competitive binding against [68Ga]MLN6907 DP in tumor models with different GCC expression levels; semi-mechanistic model
# [4] = molecular target: guanylyl cyclase C (GCC) (human), P25092; assay: competitive binding against [111In]MLN6907 on HEK-293 GCC Clone 2 cells; DSP without chelation reaction conditions
# [5] = molecular target: guanylyl cyclase C (GCC) (human), P25092; assay: in vivo competitive binding study with [68Ga]MLN6907 in HEK-293 GCC Clone 2 tumor-bearing mice, model-derived
# Sequence of guanylyl cyclase C (GCC) (human), P25092 (P25092 24-1073 limits assumed): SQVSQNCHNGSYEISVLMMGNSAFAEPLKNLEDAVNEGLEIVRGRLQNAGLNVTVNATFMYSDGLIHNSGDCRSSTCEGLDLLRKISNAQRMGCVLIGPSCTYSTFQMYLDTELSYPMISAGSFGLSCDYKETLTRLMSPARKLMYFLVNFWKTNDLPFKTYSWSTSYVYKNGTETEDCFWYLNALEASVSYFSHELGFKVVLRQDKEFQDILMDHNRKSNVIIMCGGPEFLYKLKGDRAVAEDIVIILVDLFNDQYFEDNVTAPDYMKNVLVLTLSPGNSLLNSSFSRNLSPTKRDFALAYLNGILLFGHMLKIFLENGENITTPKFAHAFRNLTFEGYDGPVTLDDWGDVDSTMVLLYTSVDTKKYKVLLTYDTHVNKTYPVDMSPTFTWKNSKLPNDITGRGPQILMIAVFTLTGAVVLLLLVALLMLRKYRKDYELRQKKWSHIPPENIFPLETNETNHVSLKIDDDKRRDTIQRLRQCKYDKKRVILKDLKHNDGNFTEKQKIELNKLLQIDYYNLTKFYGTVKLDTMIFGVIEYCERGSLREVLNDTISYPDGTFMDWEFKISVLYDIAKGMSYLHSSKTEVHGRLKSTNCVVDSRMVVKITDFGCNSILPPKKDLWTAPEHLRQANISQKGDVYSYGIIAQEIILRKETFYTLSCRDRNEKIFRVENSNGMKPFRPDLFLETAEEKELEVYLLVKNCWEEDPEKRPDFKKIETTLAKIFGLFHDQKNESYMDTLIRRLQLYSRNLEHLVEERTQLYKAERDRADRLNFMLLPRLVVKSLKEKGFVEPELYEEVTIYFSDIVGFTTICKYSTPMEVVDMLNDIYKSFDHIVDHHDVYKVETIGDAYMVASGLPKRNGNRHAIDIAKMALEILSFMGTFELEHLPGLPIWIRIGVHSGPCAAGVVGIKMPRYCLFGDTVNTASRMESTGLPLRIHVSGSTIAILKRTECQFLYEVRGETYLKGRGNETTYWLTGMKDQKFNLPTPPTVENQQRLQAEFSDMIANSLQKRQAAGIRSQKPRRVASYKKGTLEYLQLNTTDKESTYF
Binder,Kd [1] [nM],IC50 [2] [nM],EC50 [3] [nM],IC50 [4] [nM],"Bmax (antigen surface density, HEK-293 GCC Clone 2) [5]"
"CCELCCNPACAGCY (modifications not checked) [MLN6907 DSP (drug substance precursor), Formula (VI): DOTA-Ahx-STp(5-18), not radiolabeled]",3.2,4.75,97.1 to 5660,4.59,–
B1,–,–,–,–,14000
